Substitutions are numbered along the chain they refer to. Numbers in names are those of the source.

The Kd is the constant that tells how readily two partners part at equilibrium. Usually koff stands for the first-order rate constant of dissociation. Broadly, the kon is the second-order rate constant of association.

Test [1] concerns the target T1, human PD-1 (Sino Biological, Catalog Number: 10377-H08H) (human, UniProt Q15116 25-167).
T1 construct: Bought protein
The test is described as follows: BLI, Octet RED96e, antibody on AHC sensor, PD-1 100 nM. A general note: BLI is a label-free optical method that tracks binding on a fibre tip over time.

For test [2], the target named is biotin-labeled human PD-1 (Acro, Catalog Number: PD1-H82E4) (human) (UniProt Q15116). The test is described as follows: flow cytometry, yeast-displayed Fab, titration of soluble PD-1. In general terms: In flow cytometry, cells or beads pass a laser one at a time.
Test [3] addresses biotin-labeled monkey PD-1 (Acro, Catalog Number: PD1-C82E6) (monkey (cyno)) (UniProt B0LAJ3). The description is as above.
The target in test [4] is T1, human PD-1 (Sino Biological, Catalog …). The test is described as follows: BLI, Octet RED96e.
The target in test [5] is T2, human PD-1 (Acro, Catalog Number: PD-1-H5221) (human, UniProt Q15116 25-167).
T2 construct: Bought protein
The test is described as follows: BLI, Octet RED96e, antibody on AHC sensor, PD-1 100 nM.

Test [6] deals with T3, monkey PD-1 (Acro, Catalog Number: PD-1-C5223) (monkey, UniProt B0LAJ3 25-170).
T3 construct: Bought protein; not shown: any purification tag of the vendor's construct (Acro PD-1-C5223)
The test is described as above.

Test [7] deals with T2, human PD-1 (Acro, Catalog Number: …). The test is described as follows: BLI, Octet RED96e.
Test [8] deals with T3, monkey PD-1 (Acro, Catalog Number: …). The test is described as follows: BLI, Octet RED96e.

T2 sequence (Q15116 25-167 limits assumed): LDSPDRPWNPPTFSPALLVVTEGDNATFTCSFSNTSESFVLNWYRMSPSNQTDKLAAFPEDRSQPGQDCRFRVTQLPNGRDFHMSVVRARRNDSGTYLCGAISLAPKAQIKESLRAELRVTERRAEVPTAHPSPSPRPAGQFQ
T1 sequence (Q15116 25-167 limits assumed): as above
T3 sequence (B0LAJ3 entry or part of it limits assumed, form in doubt): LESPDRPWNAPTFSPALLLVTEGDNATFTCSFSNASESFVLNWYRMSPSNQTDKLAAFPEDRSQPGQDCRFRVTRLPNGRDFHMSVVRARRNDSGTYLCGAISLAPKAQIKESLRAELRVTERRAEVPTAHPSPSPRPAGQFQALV
Chain of biotin-labeled human PD-1 (Acro, Catalog Number: PD1-H82E4) (human) (Q15116 25-167 limits assumed): as the sequence (Q15116 25-167 limits assumed) above
Chain of biotin-labeled monkey PD-1 (Acro, Catalog Number: PD1-C82E6) (monkey (cyno)) (B0LAJ3 entry or part of it limits assumed): as the sequence (B0LAJ3 entry or part of it limits assumed, form in doubt) above

B1: 1910h3hzL3H4 (antibody, V domains shown)
VH: QVQLVQSGAEVKKPGASVKVSCKASGFTFIDYEMHWVRQAPGQGLEWIGGIHPGSGGTAYNQKFKGRATLTADISISTAYMELSRLRSDDTAVYYCTREGFDVGWYFDVWGQGTTVTVSS
VL: DVVMTQSPLSLPVTLGQPASISCRSSQSIVHSDGDTFLEWYQQRPGQSPRLLIYKVSNRFSGVPDRFSGSGSGTDFTLKISRVEAEDVGVYYCFQGSHVPYTFGQGTKLEIK
notes: Humanized antibody; the description mentions human IgG4 S228P and kappa; also called humanized antibody of 46H3A8; 1910h3hzL3 light chain + 1910h3hzH4 heavy chain
Consider B1, for which, in test [1], the Kd is 8.04 nM, the koff stood at 0.00118 s⁻¹ and the kon is 147000 M⁻¹ s⁻¹.

B2: 41D2HzL4H3 parent sequence displayed on the yeast surface in the form of Fab (Fab, V domains shown)
VH: EVQLVESGGGLVKPGGSLRLSCAASGFTFSNYDMSWVRQAPGKGLEWVSTISGGGSYTYYADSVKGRFTISRDNAKNSLYLQMNSLRAEDTAVYYCVSPYYGMEYWGQGTLVTVSS
VL: DIQLTQSPSFLSASVGDRVTITCKASQDVGTAVAWYQQKPGKAPKLLIYWASTRHTGVPSRFSGSGSGTEFTLTISSLQPEDFATYFCQQYSSYPWTFGGGTKVEIK
Take B2: the results for the Ag50 in test [2] and in test [3] were 5.08 nM and 36.1 nM, respectively.

B3: 41D2HzL4H3 (antibody, V domains shown)
VH: B2 VH
VL: B2 VL
notes: Humanized antibody; the description mentions human IgG4 S228P and kappa; also called parent antibody; humanized antibody of 41D2-2C3D7
Consider B3, for which the “fold higher affinity than Pembrolizumab” value in test [4] was found to be 4.2 times. The Kd in test [1] was determined as 1.92 nM; in test [5] it was 1.27 nM; in test [6], 5.2 nM. Moreover, the values for the koff in test [1], in test [5] and in test [6] were 0.000542 s⁻¹, 0.000589 s⁻¹ and 0.00153 s⁻¹, respectively. Besides, the kon in test [1] was determined as 283000 M⁻¹ s⁻¹; in test [5], 464000 M⁻¹ s⁻¹; in test [6], 295000 M⁻¹ s⁻¹.

B4: Ab2005Am08 (antibody, V domains shown)
VH: B2 VH with S56R
VL: B2 VL
notes: also called clone YC215H3 as IgG
Take B4: the “fold affinity against the parent antibody” value in test [7] and in test [8] was about 2 times throughout. The Ag50 in test [2] was determined as 1.26 nM; in test [3] it was 2.42 nM. For the same molecule, the values for the Kd in test [5] and in test [6] were 0.504 nM and 1.52 nM, respectively. Further, the koff in test [5] was 0.00023 s⁻¹; in test [6], 0.000486 s⁻¹. Further, the kon worked out at 457000 M⁻¹ s⁻¹ in test [5] and 320000 M⁻¹ s⁻¹ in test [6].

The values are drawn from patent EP4293046A1 (Shanghai Jemincare Pharmaceuticals Co., Ltd., dated 2023).
